The text below walks through data of patent US20180305450A1 (AstraZeneca / MedImmune, published 2018).

In assay [1] the target is T1, recombinant biotinylated human PAR2 extracellular domain (residues 1-75), N-terminal AviTag, C-terminal Flag … (human, UniProt P55085 26-75, biotin on the AviTag (enzymatic biotinylation)).
T1 construct: also called Bio-human-PAR2 ECD; human PAR2 ECD; not shown: N-terminal AviTag (Avidity LLC); C-terminal Flag and poly Histidine tags
The assay can be described thus: Biacore SPR 25 C, pH 7.4. As for the experimental part:
(§1) The experiments were carried out using recombinant human, rat and cynomolgus PAR2 with an N-terminal Avi tag and C-terminal Flag-His tags.
(§2) Streptavidin was covalently immobilised to a C1 chip surface using standard amine coupling techniques at a concentration of 4 μg/ml in 10 mM Sodium acetate pH 4.5. A final streptavidin surface of approximately 30-100 RUs was achieved. Recombinant biotinylated PAR2 species (produced in-house) were titrated onto the streptavidin chip surface at 4 μg/ml in HBS-EP+ buffer to enable Fab binding at saturation (Rₘₐₓ). This low level of analyte binding ensured minimal mass transport effects.
(§3) The anti-PAR2 Fabs were serially diluted (0.39 nM-25 nM) in HBS-EP+ buffer pH 7.4 or MES-BS-EP+ pH 6.0 buffer or in MES-BS-EP+ pH 5.6 buffer and flowed over the chip at 50 μl/min, with 3 minutes association and up to 30 minutes dissociation. Multiple buffer-only injections were made under the same conditions to allow for double reference subtraction of the final sensorgram sets, which were analysed using the BiaEval software (version 2.0.1). The chip surface was fully regenerated with pulses of 4 M MgCl₂.
For orientation: In SPR one partner is held on a chip, and binding of the other changes the refractive index at the surface.

For assay [2], the target named is T2, recombinant biotinylated rat PAR2 extracellular residues 1-75, N-terminal AviTag, C-terminal Flag and poly … (rat, UniProt Q63645 26-75, not fully specified; biotin on the AviTag (enzymatic biotinylation)).
T2 construct: range 1-75; not shown: N-terminal AviTag (Avidity LLC); C-terminal Flag and poly Histidine tags
T2 chain (looked up): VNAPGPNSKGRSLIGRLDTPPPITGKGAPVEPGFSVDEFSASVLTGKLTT
The assay can be described thus: Biacore SPR 25 C, pH 7.4. As for the experimental part:
as §1, §2, §3

The target in assay [3] is T1, recombinant biotinylated human PAR2 …. The assay can be described thus: Biacore SPR 25 C, pH 6.0. As for the experimental part: as §1, §2, §3
The target of assay [4] is T2, recombinant biotinylated rat PAR2 …. The assay can be described thus: Biacore SPR 25 C, pH 6.0. The procedure:
as §1, §2, §3

T1 sequence (P55085 26-75): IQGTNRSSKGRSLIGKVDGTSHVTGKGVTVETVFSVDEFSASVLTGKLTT

B1: PaB670103 Fab (Fab, V domains shown)
VH: EVQLLESGGGLVQPGGSLRLSCAASGFTFSSYAMNWVRQAPGKGLEWVSTISYSGSLISYADSVKGRFTISRDNSKNTLYLQMNSLRAEDTAVYYCARINNDPMDVWGQGTLVTVSS
VL: SIELTQPPSVSVSPGQTASITCSGDNLGKKYVQWYQQKPGQSPVLVIYDDSNRPSGIPERFSGSNSGNTATLTISGTQAMDEADYYCHTWDGHHTTGETNHFGGGTKLTVL
notes: Fab; also called ZZ1RCX-C09
In general, Kd refers to the constant that tells how readily two partners part at equilibrium. The koff is the rate constant with which the complex falls apart. As usually defined, the kon is a measure of how fast the partners come together. On to B1, for which the Kd in assay [1] is 0.0325 nM; in assay [2], 0.184 nM; in assay [3], 1.8 nM; in assay [4] it was 10.2 nM. The koff in assay [1] was 0.000111 s⁻¹; in assay [2] it was 0.000558 s⁻¹; in assay [3], 0.000607 s⁻¹; in assay [4], 0.00542 s⁻¹. Also, the kon was 3.52e+06 M⁻¹ s⁻¹ in assay [1], 3.04e+06 M⁻¹ s⁻¹ in assay [2], 336000 M⁻¹ s⁻¹ in assay [3] and 531000 M⁻¹ s⁻¹ in assay [4].

B2: Par0067 Fab (Fab, V domains shown)
VH: EVQLLESGGGLVQPGGSLRLSCAASGFTFSSYAMNWVRQAPGKGLEWVSTISYSGSLISYADSVKGRFTISRDNSKNTLYLQMNSLRAEDTAVYYCARINNDPMDVWGQGTLVTVSS
VL: SIELTQPPSVSVSPGQTASITCSGDNLGKKYVQWYQQKPGQSPVLVIYDDSNRPSGIPERFSGSNSGNTATLTISGTQAMDEADYYCQTWDGNPTTGETNVFGGGTKLTVL
notes: Fab; also called ZZ15D2-D02
Take B2: the Kd in assay [1] turned out to be 0.0075 nM; in assay [2], 0.0376 nM; in assay [3] it was 0.0312 nM; in assay [4] it was 0.17 nM. Further, the koff in assay [1] turned out to be 4.96e-05 s⁻¹; in assay [2], 0.000194 s⁻¹; in assay [3], 9.72e-05 s⁻¹; in assay [4] it was 0.000544 s⁻¹. Moreover, the kon in assay [1] is 6.66e+06 M⁻¹ s⁻¹; in assay [2], 5.16e+06 M⁻¹ s⁻¹; in assay [3], 3.12e+06 M⁻¹ s⁻¹; in assay [4], 3.21e+06 M⁻¹ s⁻¹.

B3: PaB670128 Fab (Fab, V domains shown)
VH: EVQLLESGGGLVQPGGSLRLSCAASGFTFSSYAMNWVRQAPGKGLEWVSTISYHGHHISYADSHHHRFTISRDNSKNTLYLQMNSLRAEDTAVYYCARIHHDPMDVWGQGTLVTVSS
VL: SIELTQPPSVSVSPGQTASITCSGDNLGKKYVQWYQQKPGQSPVLVIYDDSNRPSGIPERFSGSNSGNTATLTISGTQAMDEADYYCQTWDGNPTTGETNVFGGGTKLTVL
notes: Fab; also called ZZ1RUE-A01
In the case of B3, the Kd is 0.613 nM in assay [1], 3.02 nM in assay [2], 20.1 nM in assay [3] and 38.5 nM in assay [4]. The koff in assay [1] worked out at 0.00365 s⁻¹; in assay [2], 0.0196 s⁻¹; in assay [3] it was 0.0457 s⁻¹; in assay [4], 0.0689 s⁻¹. Also, the kon in assay [1] amounted to 5.95e+06 M⁻¹ s⁻¹; in assay [2], 6.49e+06 M⁻¹ s⁻¹; in assay [3], 2.22e+06 M⁻¹ s⁻¹; in assay [4] it was 1.79e+06 M⁻¹ s⁻¹.

B4: PaB670120 Fab (Fab, V domains shown)
VH: EVQLLESGGGLVQPGGSLRLSCAASGFTFSSYAMNWVRQAPGKGLEWVSTISYHGHHISYADSHHHRFTISRDNSKNTLYLQMNSLRAEDTAVYYCARINHDPMDVWGQGTLVTVSS
VL: SIELTQPPSVSVSPGQTASITCSGDNLGKKYVQWYQQKPGQSPVLVIYDDSNRPSGIPERFSGSNSGNTATLTISGTQAMDEADYYCQTWDGNPTTGETNVFGGGTKLTVL
notes: Fab; also called ZZ1RUC-C11
Regarding B4, the Kd came out at 0.247 nM in assay [1], 2.61 nM in assay [2], 6.05 nM in assay [3] and 34 nM in assay [4]. Also, the koff in assay [1] was found to be 0.00137 s⁻¹; in assay [2], 0.0146 s⁻¹; in assay [3] it was 0.021 s⁻¹; in assay [4], 0.281 s⁻¹. For the same molecule, the on-rate (kon) in assay [1] came to 5.54e+06 M⁻¹ s⁻¹; in assay [2], 5.62e+06 M⁻¹ s⁻¹; in assay [3], 3.48e+06 M⁻¹ s⁻¹; in assay [4], 8.26e+06 M⁻¹ s⁻¹.
